Measurements as given in the DeepSol protein solubility set.

assay: soluble on expression in E. coli; label from the status in PepcDB or PDB records

Sequence	soluble on expression in E. coli
MKITHCKLKKKVQKELLRFFVLEVTARSAADILGIHPNSAVLFYRKIRMVISHYLALAANEVFEGSVELDESYFGGRRKGKRGRGAAGKVVVFGILKRNGRVYTVVVDNAKSDTLMPVIKQKIMPDSIVYTDSLSSYDKLDVSGFIHYRINHSKEFADRQNHINGIENFWNQAKRVLRK	not soluble
MKIVAVTACPTGIAHTYMAADALMKAAPKHNVQIKVETQGAMGIENQLTPHDIAQADRVLIVSDIEIEQPGRFEGTRKIQIPIEEVLLNVDKVFLVHCRD	soluble
MKIVTTVQEMQHITKELRASGKSIGFVPTMGYLHEGHATLLRKAREENEIVVLSVFVNPLQFGPNEDLDRYPRDIDRDENVAKENGVDYLFYPSVEEMYPAEQTTTVEVVKRTDVLCGKQRPGHFAGVATVLMKLFNITLPTRAYFGMKDAQQVAVIEGFVADFNIPVIIVPVDIVREEDGLAKSSRNVYLSQKERKEAPHLYRSLCMAKERIEAGERNAEIITTLVKEYIETYTKGTVDYADLYAYPSLQVVDQIEGRIILAIAVKFENVRLIDNITLTVK	not soluble
MKIYTRTGDAGETGLYGAERVVKAHPRVEAYGTVDEANSAIGLARSLLPGKHRDLHDLLERLQNALFDLGADLATRMGSPYEKNIARMDAEDVRALEEAIDRYQEESPPFQGFILPGGHPAAAALHLARTVVRRAERKAVALSREEPVNPEVIRYLNRLSDLLFVLARVVNAREGIKEEGWLVKKRR	soluble
MKKAKKEKKEKIIKPDGPINFNRSIMAAFEKQSRGKICPLCETKFSLASYKSHMNTCNVADDDEEIEVIATYTRDEAILMRAGPEIILGDASFSDKSENPTKRRKTDEREVPSEDDIVPEVPGPSGIVKNHEMPSESLDVTEISENIEKVIKKSPEWINHRRRSSRLLQNSQKDQADNANKEDPVKKETATISEVLQAIERFEQRVSGPEQTWPYYIKITIKIMKRVISTEKFDGTFYADDFWLPSDIITFYRFVELLSEGAKCLLVRLFIRKPAWYNLEKLEQKYPEIPNIKEAVSELAKGHFIDDDSSMKTLDEALQISDVVALKNVTKKFKLDGTKNRQELIQSLRKFAQSQQSIFGGTGNVEKSILKSLKQELGPCVRVRGGFVDLFKCLFTIYCPVTTNSANVIDNPSTTNVYQDLLYLMLSVANGTVQFPAPNPCPIIASFYKNRNMLQDYMISKSLEIAIVSQMSNGNLDAALDLAIDAKEFIEQMSDDDKRYYESLEIHERKFTSIWVFTRCCGHASSILERQKKYGMAVEWQKDLLITNKDIQSYCIDSRGIWWDRMLLNLDSHLKEKKECAKMIQIALQDPSILEKELLMIQDRALKLKEMPADFVTPINIGNPEKKTITANVITKSLGDGRINRFMIRDHETDDDVECSVEEVTRRHYLENEGFSTGVHDEGSTWHTLFGLFFYDVIFATDESVESTWLSELQDCPSDLSNTLYSKRKEKFEDRFVWLEEAEQELIEENIRKIWDLKHNETNRECSWKQFPMGAEDCVSFFQCIPRPALILILRRLAENYRNSRSGFPDLTLWNPETKRVAVVEVKGPGDRLSTKQRLWLAIFADSGIRAEVCHVAAQNSRLLV	not soluble
MKKDIFYCEQWSYGYKKLHKPFSEKQAEEKHLKGELYTAVIGSATQPEYVITLREEVGFFSVHFFDKFGRDYLTHQFQKYSNSNYYFLSMAVWRDYITLESHDLAEGYTYFFNENTDDCYVLKEDFINNERYEKTELYSQKDKVILFPKFGEYDLVLNPDII	not soluble
MKKFCLSYSSGKDCLLAMDRLVQAGNQPVALVTTLSDEINRSWFHGIPISVLEAAAEALDLPLVISHNNETNYTEKVVEALQETKKLGAETVCFGDIDIEQNGAWDRQVALSAGLEPQLPLWQENREALVKEFLAKGYTAIIKTVSKEAGIPIKFLGEPLNETFITYLKEHQLDICGENGEYHTLVIDGPLFKKRLNYYTSGIYESPYAYSLIIDA	not soluble
MKKIITLFGACALAFSMANADVNLYGPGGPHTALKDIANKYSEKTGVKVNVNFGPQATWFEKAKKDADILFGASDQSALAIASDFGKDFNVSKIKPLYFREAIILTQKGNPLKIKGLKDLANKKVRIVVPEGAGKSNTSGTGVWEDMIGRTQDIKTIQNFRNNIVAFVPNSGSARKLFAQDQADAWITWIDWSKSNPDIGTAVAIEKDLVVYRTFNVIAKEGASKETQDFIAYLSSKEAKEIFKKYGWREH	soluble
MKKINAIILLSSLTSASVFAGAYVENREAYNLASDQGEVMLRVGYNFDMGAGIMLTNTYNFQREDELKHGYNEIEGWYPLFKPTDKLTIQPGGLINDKSIGSGGAVYLDVNYKFVPWFNLTVRNRYNHNNYSSTDLSGELDNNDTYEIGTYWNFKITDKFSYTFEPHYFMRVNDFNSSNGKDHHWEITNTFRYRINEHWLPYFELRWLDRNVEPYHREQNQIRIGTKYFF	soluble
MKKPTSAPRSKAFGKQRRKTREELNQEARDRKRLKKHRGHAPGSRAAGGNSASGGGNQNQQKDPRIGSKTPVPLGVTEKVTQQHKPKSEKPMLSPQAELDLLETDERLDALLERLEAGETLSAEDQAWVDAKLDRIDELMQKLGLSYDDDEEDDEEDEKQEDMMRLLRGGN	not soluble
MKKQKLSGAEGFESYYLSIFGERWQSLKAALLEERKPEAYSENLIQNYYLDYASIQAARAMPVLEEGSCLDMCAAPGGKTLVLLSRIKENAEIQANELSADRRNRLIRVLDEHLSEETRKRIRVSSYDASRMPRYGQELYDRILLDAPCSSERHVLQNEKYLKQWTEARIKNLSQRQWALLSAAFLLLKPKGFLVYSTCALADEENDFLIEKLIKKYKEKVRLEEKLDGLGPISPEKTRYGFRFLPDKAEGAGPIYFSLIQKN	not soluble
MKKRFIYHDEKSNKFWWIDYEGDSLAVNYGKVGSIGKFQTKEFDNEEQCLKEASKLIAAKMKKGYQEDPKFNFMDRYYFDDEEIGLHVKTSHPNFQCHFTDPLYMCCWDEESPFGSDEGADALNVLENSLRKEPDLDCADFPQMLIETMWGMKYIAMDSILEEDVRAQLLVDEMSTIQSNMITYATAFGQIKVMGKISHKLKKMGLNALARHQLTAKILQWGDGQDSPILQKMIDDLTAFPHENLEHHHHHH	soluble
MKKSPKISLILEAFQNLEKAYVDLKKNLEIPKEEFVKNKLVQDRVRIDFNLAFESTMRVCRHLSAVYGVKTSSRDCLPKIAEHIGLPFADRLKKFSEFYFRYRDLKDTVSPEELYDFLKENLVLFKEFARGVVEYIKKTTGNYLLIDFDLLNEKAKFIKDSVKKIDFVLSQGEEEFKKTPMYYDRVKYFYQVAYDSLFDICKHLAPKFGIKKFGDDCLTKMVEKGVIPPEYYETVLKMTLLKNKLISTWEVSPEELYRSLKELNDKFIPVLREISKSLKLLLEKKAKEVGKEA	not soluble
MKKTIVFKCGGSVIRELSEEFYQNLKELRASGWKLAIVHGGGPEITNMLKRLNIKTEFSGGQRKTTKPVLEVAEMVLSGSVNKFFVAELAKHGLRAAGISGKDGGLLEADYLDPETYGEVGEIKKVDASMVNALMENGIIPVIAPLSMTSDCKTLNVNADLAASAVAGALEADKLMFVTDVDGIMKEKQRLDVLTPKEIQMLIKQEVITGGMIPKVNSALSALSDQVSEVMIVNGKGSFFAEQTFQGTKIVKAKEAVS	not soluble
MKKTKIVALSMMNSQTSGNPSRGTTKFESYTFDYWQYIDTLVYWGGSSGEGIIVTPSADVIDEAHSNGVPVLGTIFLPPKEYGGKVDWVKTMLKKDEQGQYPFASQMVKVAKTYGFEGWFINEETQGLNADDAANMKALIQQVKKEDSSLQIMWYDAMTKDGKVDWQNQLNDQNATFVQDKAADAMFLNFWWTQNNLADQKLLEKSNLYAKNHNIDPYNIYAGIDVQAKDVQTPVKWNLLEKGNQATQTSIGLYAASATYTNASNWDDFQNRESAFWVNQKADPRQVDHSVNESWTGLSKYVLEKSAISGNEFNTNFNLGNGYNYFKAGQKISEMDWNDRSLAGILPSYRWIIDNEGKNKISPSFDFANAYNGGNSLKFMAEHLDAGKSSNITLFASDLKIAMGAKFSVSMRSDQALKVSAILELANGQKVSIAGDKSLTENWSKLEHHHHHH	not soluble
MKKVALVTGAGQGIGKAIALRLVKDGFAVAIADYNDATAKAVASEINQAGGHAVAVKVDVSDRDQVFAAVEQARKTLGGFDVIVNNAGVAPSTPIESITPEIVDKVYNINVKGVIWGIQAAVEAFKKEGHGGKIINACSQAGHVGNPELAVYSSSKFAVRGLTQTAARDLAPLGITVNGYCPGIVKTPMWAEIDRQVSEAAGKPLGYGTAEFAKRITLGRLSEPEDVAACVSYLASPDSDYMTGQSLLIDGGMVFN	soluble
